# What was measured:
# [1] = molecular target: full-length human CD28 (hCD28, amino acids M1 to S220, accession #P10747) on engineered reporter T-cells (human, UniProt P10747 19-220); experiment: cell-based or functional assay
# [2] = molecular target: T1, PSMA on the surface of cell lines expressing PSMA (C4-2, 22RV1) (human, UniProt Q04609 1-750); experiment: flow cytometry, 22RV1 cells expressing PSMA
# T1 construct: whole, on cells; also called C4-2 cells; 22RV1 cells
# [3] = molecular target: T2, 6h.hPSMA (recombinant Human PSMA/FOLH1 Protein, R&D, Catalog #4234-ZN) (human, UniProt Q04609 44-750); experiment: SPR, Biacore T-200, antibody captured by anti-human Fc, 6h.hPSMA injected, 25°C
# T2 construct: Bought protein; also called hPSMA with an N-terminal polyhistidine tag; hPSMA.6H; not shown: N-terminal polyhistidine tag (6h)
# Description: (§1) The different concentrations of 6h.hPSMA were injected over the monoclonal antibody captured surface at a flow rate of 50 μL/minute. Association of 6h.hPSMA to the captured monoclonal antibody was monitored for 3 minutes and the dissociation of 6h.hPSMA in HBS-P++ running buffer was monitored for 10 minutes. Kinetic association (kₐ) and dissociation (kd) rate constants were determined by fitting the real-time sensorgrams to a 1:1 binding model using Scrubber 2.0c curve fitting software (BioLogic Software). Binding dissociation equilibrium constants (KD) and dissociative half-lives (t1/2) were calculated from the kinetic rate constants as: KD(M)=kd/kₐ, and t1/2 (min)=0.693/kd/60
# [4] = molecular target: T3, CD28 on the surface of Human T cells (human, UniProt P10747 19-220); experiment: flow cytometry, human CD8+ T cells; CD8+ T cells
# T3 construct: whole, on cells; also called CD28 on T cells; all T cells
# [5] = molecular target: T3, CD28 on the surface of Human T cells; experiment: flow cytometry, human CD4+ T cells; CD4+ T cells
# [6] = molecular target: T1, PSMA on the surface of cell lines …; experiment: flow cytometry, C4-2 cells expressing PSMA
# [7] = molecular target: T4, hCD28.mmh (human, UniProt P10747 19-152); experiment: SPR, Biacore T-200, antibody captured by anti-human Fc, hCD28.mmh injected, 25°C
# T4 construct: also called hCD28.6H; not shown: neither explained nor printed
# Description: as §1, with “Different concentrations” for “The different concentrations”, “of hCD28.mmh” for “of 6h.hPSMA”, “for 5” for “for 3”, “fitting software.” for “fitting software (BioLogic Software).”
# [8] = molecular target: T2, 6h.hPSMA (recombinant Human PSMA/FOLH1 …); experiment: SPR, Biacore, captured antibody, hPSMA.6H (block headed 10 nM), 37°C
# [9] = molecular target: T4, hCD28.mmh; experiment: SPR, Biacore, captured antibody, soluble hCD28 injected, 37°C
# [10] = molecular target: T3, CD28 on the surface of Human T cells; experiment: flow cytometry, human T cells (all T cells); all T cells
# [11] = molecular target: T2, 6h.hPSMA (recombinant Human PSMA/FOLH1 …); experiment: SPR, Biacore, captured antibody, hPSMA.6H (block headed 20 nM), 37°C
# [12] = molecular target: T2, 6h.hPSMA (recombinant Human PSMA/FOLH1 …); experiment: SPR, Biacore, captured antibody, hPSMA.6H (block headed 20 nM), 37°C; 20 nM hPSMA.6H block, 37 C
# T2 sequence (Q04609 44-750 limits assumed): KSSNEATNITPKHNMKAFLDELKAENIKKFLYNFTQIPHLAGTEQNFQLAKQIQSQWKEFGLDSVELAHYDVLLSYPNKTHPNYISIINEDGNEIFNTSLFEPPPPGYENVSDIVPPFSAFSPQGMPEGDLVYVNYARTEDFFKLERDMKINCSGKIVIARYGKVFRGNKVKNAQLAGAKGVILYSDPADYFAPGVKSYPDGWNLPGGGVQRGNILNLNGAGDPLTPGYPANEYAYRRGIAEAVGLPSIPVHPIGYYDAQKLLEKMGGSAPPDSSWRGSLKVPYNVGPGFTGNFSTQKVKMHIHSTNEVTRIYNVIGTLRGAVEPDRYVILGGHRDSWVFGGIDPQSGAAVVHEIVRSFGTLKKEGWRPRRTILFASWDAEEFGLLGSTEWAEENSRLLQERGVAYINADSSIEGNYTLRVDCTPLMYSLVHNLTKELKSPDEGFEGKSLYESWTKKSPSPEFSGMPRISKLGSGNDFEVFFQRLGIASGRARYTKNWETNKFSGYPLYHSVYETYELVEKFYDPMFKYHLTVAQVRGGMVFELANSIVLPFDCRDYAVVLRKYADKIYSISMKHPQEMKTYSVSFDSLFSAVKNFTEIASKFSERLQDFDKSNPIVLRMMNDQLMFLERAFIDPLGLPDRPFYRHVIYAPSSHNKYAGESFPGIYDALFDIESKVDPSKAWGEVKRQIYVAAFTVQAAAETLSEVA
# T1 sequence (Q04609 whole entry): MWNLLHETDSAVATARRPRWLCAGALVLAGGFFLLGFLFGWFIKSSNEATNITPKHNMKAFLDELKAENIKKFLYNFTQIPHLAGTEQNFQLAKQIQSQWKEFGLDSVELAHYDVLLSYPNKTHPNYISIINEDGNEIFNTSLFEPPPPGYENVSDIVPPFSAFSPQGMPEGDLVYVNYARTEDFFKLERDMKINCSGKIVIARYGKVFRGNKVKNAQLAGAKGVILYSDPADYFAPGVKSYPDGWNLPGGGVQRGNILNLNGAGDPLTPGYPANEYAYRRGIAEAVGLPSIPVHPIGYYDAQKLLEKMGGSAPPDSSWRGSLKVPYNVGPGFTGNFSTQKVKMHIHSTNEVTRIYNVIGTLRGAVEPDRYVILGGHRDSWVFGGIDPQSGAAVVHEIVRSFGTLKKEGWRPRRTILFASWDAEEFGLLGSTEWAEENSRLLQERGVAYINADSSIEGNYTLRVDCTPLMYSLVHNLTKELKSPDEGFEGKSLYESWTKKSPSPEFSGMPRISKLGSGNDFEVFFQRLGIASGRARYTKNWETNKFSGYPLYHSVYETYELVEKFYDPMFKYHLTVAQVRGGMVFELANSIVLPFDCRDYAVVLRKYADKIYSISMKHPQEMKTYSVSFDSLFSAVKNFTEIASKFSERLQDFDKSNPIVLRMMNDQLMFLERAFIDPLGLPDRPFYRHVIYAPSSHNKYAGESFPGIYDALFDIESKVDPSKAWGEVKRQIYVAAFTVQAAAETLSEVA
"EC50 [M], luciferase activity in engineered reporter T-cells with HEK293/hCD20/hPSMA, presence of TCR stimulation [1]","Fold induction, luciferase activity in engineered reporter T-cells with HEK293/hCD20, absence of TCR stimulation [1]","Fold induction, luciferase activity in engineered reporter T-cells with HEK293/hCD20, presence of TCR stimulation [1]","Fold induction, luciferase activity in engineered reporter T-cells with HEK293/hCD20/hPSMA, absence of TCR stimulation [1]","Fold induction, luciferase activity in engineered reporter T-cells with HEK293/hCD20/hPSMA, presence of TCR stimulation [1]",EC50 [2],Kd [3],T½ [3],koff [3],kon [3],EC50 [4],EC50 [5],EC50 [6],Kd [7],T½ [7],koff [7],kon [7],Binder,other results
4.57e-10 M,0.87 fold,0.92 fold,0.89 fold,13.6 fold,–,–,–,–,–,–,–,–,–,–,–,–,"BSPSMA/CD28-002 (bispecific antibody, human IgG4 S228P, kappa) heavy 1: QVQLVESGGGVVQPGRSLRLSCAASGFTFSSYGMHWVRQAPGKGLEWVAVISYAGNNKYYADSVKGRFTVSRDNSKKTLYLQMNSLRSEDTAVYYCAKDSYYDFLTDPDVLDIWGQGTMVTVSSASTKGPSVFPLAPCSRSTSESTAALGCLVKDYFPEPVTVSWNSGALTSGVHTFPAVLQSSGLYSLSSVVTVPSSSLGTKTYTCNVDHKPSNTKVDKRVESKYGPPCPPCPAPPVAGPSVFLFPPKPKDTLMISRTPEVTCVVVDVSQEDPEVQFNWYVDGVEVHNAKTKPREEQFNSTYRVVSVLTVLHQDWLNGKEYKCKVSNKGLPSSIEKTISKAKGQPREPQVYTLPPSQEEMTKNQVSLTCLVKGFYPSDIAVEWESNGQPENNYKTTPPVLDSDGSFFLYSRLTVDKSRWQEGNVFSCSVMHEALHNHYTQKSLSLSLGK heavy 2: EVQLVESGGGLVQPGGSLRLSCAASGFTFSTYAMTWVRQAPGKGLEWVSFISGSGDNTYYADSVKGRFTISRDNSKNTLYLQMNSLRADDSAIYHCAKDSGYCSSGGCSLYFYYGMDVWGQGTTVTVSSASTKGPSVFPLAPCSRSTSESTAALGCLVKDYFPEPVTVSWNSGALTSGVHTFPAVLQSSGLYSLSSVVTVPSSSLGTKTYTCNVDHKPSNTKVDKRVESKYGPPCPPCPAPPVAGPSVFLFPPKPKDTLMISRTPEVTCVVVDVSQEDPEVQFNWYVDGVEVHNAKTKPREEQFNSTYRVVSVLTVLHQDWLNGKEYKCKVSNKGLPSSIEKTISKAKGQPREPQVYTLPPSQEEMTKNQVSLTCLVKGFYPSDIAVEWESNGQPENNYKTTPPVLDSDGSFFLYSRLTVDKSRWQEGNVFSCSVMHEALHNRFTQKSLSLSPGK light: not shown",–
2.78e-10 M,0.94 fold,0.95 fold,0.98 fold,24.5 fold,6.33 nM,0.137 nM,5.01 h,3.85e-05 s⁻¹,280000 M⁻¹ s⁻¹,180 nM,167 nM,1.5 nM,207 nM,8.2 min,0.00141 s⁻¹,6790 M⁻¹ s⁻¹,"BSPSMA/CD28-003 (bispecific antibody, human IgG4 S228P, kappa, also called anti-PSMAxCD28 bispecific antibody) heavy 1: QVQLVESGGGVVQPGRSLRLSCAASGFTFSSYGMHWVRQAPGKGLEWVAVISYAGNNKYYADSVKGRFTVSRDNSKKTLYLQMNSLRSEDTAVYYCAKDSYYDFLTDPDVLDIWGQGTMVTVSSASTKGPSVFPLAPCSRSTSESTAALGCLVKDYFPEPVTVSWNSGALTSGVHTFPAVLQSSGLYSLSSVVTVPSSSLGTKTYTCNVDHKPSNTKVDKRVESKYGPPCPPCPAPPVAGPSVFLFPPKPKDTLMISRTPEVTCVVVDVSQEDPEVQFNWYVDGVEVHNAKTKPREEQFNSTYRVVSVLTVLHQDWLNGKEYKCKVSNKGLPSSIEKTISKAKGQPREPQVYTLPPSQEEMTKNQVSLTCLVKGFYPSDIAVEWESNGQPENNYKTTPPVLDSDGSFFLYSRLTVDKSRWQEGNVFSCSVMHEALHNHYTQKSLSLSLGK heavy 2: EVQLVESGGGLVQPGGSLRLSCAASGFTFSRNNMHWVRQAPGKGLEYVSGISSNGGRTYYADSVKGRFTISRDNSKNTLYLQMGGLRAADMAVYFCTRDDELLSFDYWGQGTLVTVSSASTKGPSVFPLAPCSRSTSESTAALGCLVKDYFPEPVTVSWNSGALTSGVHTFPAVLQSSGLYSLSSVVTVPSSSLGTKTYTCNVDHKPSNTKVDKRVESKYGPPCPPCPAPPVAGPSVFLFPPKPKDTLMISRTPEVTCVVVDVSQEDPEVQFNWYVDGVEVHNAKTKPREEQFNSTYRVVSVLTVLHQDWLNGKEYKCKVSNKGLPSSIEKTISKAKGQPREPQVYTLPPSQEEMTKNQVSLTCLVKGFYPSDIAVEWESNGQPENNYKTTPPVLDSDGSFFLYSRLTVDKSRWQEGNVFSCSVMHEALHNRFTQKSLSLSPGK light: not shown",–
1.72e-10 M,0.81 fold,1 fold,1.04 fold,16.1 fold,3.05 nM,0.251 nM,3.91 h,4.92e-05 s⁻¹,196000 M⁻¹ s⁻¹,58.9 nM,50.9 nM,3.87 nM,144 nM,3.5 min,0.00326 s⁻¹,22600 M⁻¹ s⁻¹,"BSPSMA/CD28-001 (bispecific antibody, human IgG4 S228P, kappa, also called mAb1; REGN5678) heavy 1: QVQLVESGGGVVQPGRSLRLSCAASGFTFSSYGMHWVRQAPGKGLEWVAFMSYDGSNKFYSDSVKGRFTISRDNSRKMLFLQMNNLRAEDTAVYYCARDQYYDFLTDHGVFDYWGQGTLVTVSSASTKGPSVFPLAPCSRSTSESTAALGCLVKDYFPEPVTVSWNSGALTSGVHTFPAVLQSSGLYSLSSVVTVPSSSLGTKTYTCNVDHKPSNTKVDKRVESKYGPPCPPCPAPPVAGPSVFLFPPKPKDTLMISRTPEVTCVVVDVSQEDPEVQFNWYVDGVEVHNAKTKPREEQFNSTYRVVSVLTVLHQDWLNGKEYKCKVSNKGLPSSIEKTISKAKGQPREPQVYTLPPSQEEMTKNQVSLTCLVKGFYPSDIAVEWESNGQPENNYKTTPPVLDSDGSFFLYSRLTVDKSRWQEGNVFSCSVMHEALHNHYTQKSLSLSLGK heavy 2: QVQLQESGPGLVKPSETLSLTCTVSGGSISSYYWSWIRQPPGKGLEWIGYIYYSGITHYNPSLKSRVTISVDTSKIQFSLKLSSVTAADTAVYYCARWGVRRDYYYYGMDVWGQGTTVTVSSASTKGPSVFPLAPCSRSTSESTAALGCLVKDYFPEPVTVSWNSGALTSGVHTFPAVLQSSGLYSLSSVVTVPSSSLGTKTYTCNVDHKPSNTKVDKRVESKYGPPCPPCPAPPVAGPSVFLFPPKPKDTLMISRTPEVTCVVVDVSQEDPEVQFNWYVDGVEVHNAKTKPREEQFNSTYRVVSVLTVLHQDWLNGKEYKCKVSNKGLPSSIEKTISKAKGQPREPQVYTLPPSQEEMTKNQVSLTCLVKGFYPSDIAVEWESNGQPENNYKTTPPVLDSDGSFFLYSRLTVDKSRWQEGNVFSCSVMHEALHNRFTQKSLSLSPGK light: not shown",Kd [8]: 0.396 nM; koff [8]: 7.93e-05 s⁻¹; kon [8]: 200000 M⁻¹ s⁻¹; t½ [8]: 2.43 h; Kd [9]: 272 nM; koff [9]: 0.0067 s⁻¹; kon [9]: 24600 M⁻¹ s⁻¹; t½ [9]: 1.7 min; EC50 [10]: 48 nM; Kd [11]: 0.217 nM; kon [11]: 293000 M⁻¹ s⁻¹; t½ [11]: 3.03 h; koff [12]: 6.36e-05 s⁻¹

# From patent US20240043560A1 (Regeneron, published 2024)
